Experimental data published in patent publication US7060677B1, “Antimicrobial activity of the first cationic cluster of human lactoferrin” (priority 1999, dated 2006).
“Also recorded” adds a separate entry of the source. Marks after values point to notes of the source that are not given here.

Assays:
[1] = Pharmacology of 99mTc-labeled hLF and peptides by scintigraphy in infected mice; conditions: mouse, in vivo
Protocol: Lactoferrins and related peptides were labeled with ^99mTechnetium (^99mTc) as described (22, 23). Briefly, 10 μl of a peptide solution (1 mg/ml of HAc) was added to 2 μl of an aseptic solution of 0.5 mg of stannous pyrophosphate/ml (Dept. of Clinical Pharmacy and Toxicology. Leiden University Medical Center (LUMC). Leiden. The Netherlands). Immediately thereafter, 4 μl of a solution of 10 mg of KBH4 (crystalline. Sigma) per ml of 0.1 M NaOH was added. After addition of 0.1 ml of ^99mTc-sodium pertechnetate solution (200 MBq/ml. Mallinckrodt Medical BV, Petten, The Netherlands), the mixture was gently stirred at ambient temperature for 30 min and then was ready for use. Quality control of the labeling was performed by RP-HPLC analysis using a Sep-Pak C18 cartridge (Waters, Milford, Mass.) in 20 ml of 0.01 M HAc. After rinsing with 20 ml of 0.01 M HAc, proteins and peptides were eluted with 2 ml of methanol (Sigma). […]
On the scintigrams, anatomically adjusted regions of interest (ROI) were drawn over the various organs and both thighs providing data about clearance of ^99mTc-peptides and accumulation at the site of infection. […] The amount of radioactivity in the heart was corrected for decay and expressed as a percentage of injected dose (% ID).

E. coli [2] = test: Assay for membrane permeability (propidium iodide, FACS); format: cell-based, Escherichia coli; conditions: period of analysis 4 h after addition of the protein
Protocol: (§1) Changes in the membrane permeability of bacteria upon exposure to hLF, hLF^−3N and related peptides were monitored after incubation with propidium iodide (PI; Sigma), using FACS analysis (12, 20). Stock solutions of PI (1 mg/ml of deionized water) were prepared. Approximately 2×10^6 bacteria/ml of PBS-Tw were incubated for various intervals at 37° C., washed, incubated for 5 min with 1 μg of PI/ml (final concentration) and then analyzed with a FACScan (Becton & Dickinson, CA) equipped with a argon-laser at 488 nm. The photomultiplier voltages were routinely set at 500 V for PI fluorescence intensity in the second channel. Data acquisition and analysis were controlled using the Lysis II software.

L. monocytogenes [3] = test: Assay for non-specific esterase activity (SFDA, FACS); format: cell-based, Listeria monocytogenes; conditions: within 1–2 hours after addition; FIG. 4: 4 μM
Protocol: (§2) As an indication of intracellular effects of hLF, hLF^−3N and related peptides (e.g., hLF (1–11) and hLF(21–31) in bacteria, the non-specific esterase activity of bacteria upon exposure to these antimicrobial proteins/peptides was assessed using 5-sulfofluorescein diacetate (SFDA; Molecular Probes, Leiden, The Netherlands) and FACS analysis (21). For these experiments, a stock solution of SFDA (1 mg/ml of ethanol) was prepared. Approximately 2×10^6 CFU of bacteria/ml of PBS-Tw were incubated with various concentrations of hLF, hLF^−3N and hLF related peptides for various intervals at 37° C., washed, incubated with 100 μM of SFDA/ml (final concentration ethanol 20% v/v) for 20 min at room temperature in the dark and then analyzed with a FACScan using the photomultiplier voltage of the first channel set at 700 V.

[4] = tested on: antibiotic resistant S. aureus; test: Assay for antibacterial activity (in vitro killing, viable count); format: cell-based, Staphylococcus aureus strain 2141; conditions: for CFU of bacteria, antibiotic resistant S. aureus: 4 μM protein, approx. 1 × 10^6 CFU, PBS-Tw (pH 6.0), 3 h at 37° C., mean ± SD of 3–5 experiments
Protocol: (§3) Listeria monocytogenes strain EGD. Klebsiella pneumoniae (43816), and Escherichia coli O54 were purchased from the American Type Culture Collection (Rockville, Md.). Antibiotic resistant S. aureus, K. pneumoniae and E. coli were cultured overnight in nutrient broth (Oxoid, Basingstoke, UK) at 37° C., diluted in tryptase soya broth (TSB, Oxoid) and cultured for an additional 2 h in a shaking waterbath at 37° C. L. monocytogenes was cultured overnight in brain heart infusion broth (BHI, Oxoid) at 37° C. diluted and cultured for an additional 2 h in a shaking waterbath at 37° C.
(§4) In short, bacteria were washed with phosphate-buffered saline (PBS) (pH 7.4) and diluted to a concentration of approximately 2×10^6 CFU/ml of phosphate-buffered saline (pH 6.0) supplemented with 0.1% (v/v) Tween-20 (hereafter designated as PBS-Tw). […] At various time intervals (range 0–4 h) after incubation at 37° C. the number of viable bacteria was determined microbiologically. As negative controls, bovine serum albumin (BSA; Sigma) or no peptide were included.

K. pneumoniae = test: as above; format: cell-based, Klebsiella pneumoniae (43816)
Protocol: as §3, §4

bacteria [5] = test: Assay for non-specific esterase activity (SFDA, FACS), bacteria in general; format: cell-based
bacteria [6] = test: Assay for membrane permeability (propidium iodide, FACS), bacteria in general; format: cell-based
Protocol: as §1

L. monocytogenes [7] = test: Assay for membrane permeability (propidium iodide, FACS); format: cell-based, Listeria monocytogenes; conditions: period of analysis 4 h after addition of the protein
Protocol: as §1

E. coli [8] = test: Assay for antibacterial activity (in vitro killing, viable count); format: cell-based, Escherichia coli O54; conditions: for CFU of bacteria, E. coli: 4 μM protein, approx. 1 × 10^6 CFU, PBS-Tw (pH 6.0), 3 h at 37° C., mean ± SD of 3–5 experiments
Protocol: as §3, §4

[9] = tested on: the various bacteria (L. monocytogenes, antibiotic resistant S. aureus, K. pneumoniae, E. coli); test: Assay for antibacterial activity, statements on the various bacteria together; format: cell-based
Protocol: as §3, §4

[10] = tested on: antibiotic resistant S. aureus; test: Experimental thigh muscle infection; format: in vivo, mice; conditions: FIG. 5
Protocol: In short, specific pathogen-free, male. Swiss mice weighing 20–25 g (Broekman Institute, Someren, The Netherlands) were anaesthetized with a single intraperitoneal injection of 0.1 ml of saline containing 1 mg fluanisone and 0.03 mg fentanyl citrate (Hypnorm, Janssen Pharmaceutics, Tilburg, The Netherlands). Preceding scintigraphy, a subcutaneous injection of 0.1 ml, containing 0.2 mg diazepam (Valium, Hoffmann-La Roche, Mijdrecht, The Netherlands) was administered. […] As a control, mice were injected with 0.2 ml of saline containing BSA or saline without any peptide. […] Next, the infected thigh muscles were removed and, after weighing, homogenized in 4 ml of PBS. Appropriate dilutions of the homogenates were applied onto diagnostic sensitivity test plates (Oxoid), and the number of colonies counted after an overnight culture at 37° C. Results are expressed as the number of CFUs per gram of infected tissue.

E. coli [11] = test: Assay for non-specific esterase activity (SFDA, FACS); format: cell-based, Escherichia coli; conditions: within 1–2 hours after addition
Protocol: as §2

L. monocytogenes [12] = test: Assay for antibacterial activity (in vitro killing, viable count); format: cell-based, Listeria monocytogenes strain EGD; conditions: for CFU of bacteria, L. monocytogenes: 4 μM protein, approx. 1 × 10^6 CFU, PBS-Tw (pH 6.0), 3 h at 37° C., mean ± SD of 3–5 experiments
Protocol: as §3, §4

B1: hLF: Natural human lactoferrin (Mr 77,000) purified from the fresh milk of a single donor, N-terminus intact; SEQ ID NO:1 (protein, listed as Homo sapiens)
chain: GRRRRSVQWCAVSQPEATKCFQWQRNMRKVRGPPVSCIKRDSPIQCIQAIAENRADAVTLDGGFIYEAGLAPYKLRPVAAEVYGTERQPRTHYYAVAVVKKGGSFQLNELQGLKSCHTGLRRTAGWNVPIGTLRPFLNWTGPPEPIEAAVARFFSASCVPGADKGQFPNLCRLCAGTGENKCAFSSQEPYFSYSGAFKCLRDGAGDVAFIRESTVFEDLSDEAERDEYELLCPDNTRKPVDKFKDCHLARVPSHAVVARSVNGKEDAIWNLLRQAQEKFGKDKSPKFQLFGSPSGQKDLLFKDSAIGFSRVPPRIDSGLYLGSGYFTAIQNLRKSEEEVAARRARVVWCAVGEQELRKCNQWSGLSEGSVTCSSASTTEDCIALVLKGEADAMSLDGGYVYTAGKCGLVPVLAENYKSQQSSDPDPNCVDRPVEGYLAVAVVRRSDTSLTWNSVKGKKSCHTAVDRTAGWNIPMGLLFNQTGSCKFDEYFSQSCAPGSDPRSNLCALCIGDEQGENKCVPNSNERYYGYTGAFRCLAENAGDVAFVKDVTVLQNTDGNNNEAWAKDLKLADFALLCLDGKRKPVTEARSCHLAMAPNHAVVSRMDKVERLKQVLLHQQAKFGRNGSDCPDKFCLFQSETKNLLFNDNTECLARLHGKTTYEKYLGPQYVAGITNLKKCSTSPLLEACEFLRK
Amount at the site of infection, hLF compared with hLF^−3N [1]: did not differ | mean t1/2 of removal from the circulation [1]: approximately 19 min | Change of the membrane permeability of E. coli (E. coli [2]): not followed by a significant change | Intracellular non-specific esterase activity of L. monocytogenes (L. monocytogenes [3]): inhibited | CFU of bacteria, antibiotic resistant S. aureus [4]: 6.9 ± 2.1 × 10^4*^,** CFU | CFU of bacteria, antibiotic resistant S. aureus ([4]; listed as hLF^3N): 5.6 ± 1.9 × 10^5 CFU | Killing of antibiotic resistant S. aureus by the protein (in words) ([4]; dose-dependent, FIGS. 1A–1E): killed | CFU of bacteria, K. pneumoniae (K. pneumoniae; 4 μM protein, approx. 1 × 10^6 CFU, PBS-Tw (pH 6.0), 3 h at 37° C., mean ± SD of 3–5 experiments, listed as hLF^3N): 6.8 ± 1.5 × 10^5 CFU | Killing of K. pneumoniae by the protein (in words) (K. pneumoniae; dose-dependent, FIGS. 1A–1E): killed | Non-specific esterase activity of the bacteria (conclusions) (bacteria [5]): inhibited | Effect on the non-specific esterase activity at 4° C. (bacteria [5]; 4° C.): no affect; also recorded: not able | Membrane permeability of the bacteria, proteins (conclusions) (bacteria [6]): without affecting | Change of the membrane permeability of L. monocytogenes (L. monocytogenes [7]): not followed by a significant change | CFU of bacteria, E. coli (E. coli [8]): 3.0 ± 0.3 × 10^6 CFU | CFU of bacteria, E. coli (E. coli [8]; listed as hLF^3N): 9.5 ± 8.2 × 10^5 CFU | Killing of E. coli by the protein (in words) (E. coli [8]; Table 1, even at concentrations up to 12 μM): not killed | Speed of killing these bacteria, natural hLF compared with hLF^−3N ([9]; 4 μM, FIGS. 1C–1E, p<0.05): faster (p<0.05) than hLF^−3N | Effect on the number of viable bacteria at 4° C. ([9]; 4° C.): no affect; also recorded: not able to kill bacteria | Potency in killing, natural hLF compared with hLF^−3N ([9]; dose-dependent killing, FIGS. 1A–1B, p<0.05): more potent (p<0.05) than hLF^−3N | Amount at which maximum effects on viable bacteria were seen ([10]; mice infected with antibiotic resistant S. aureus, 24 h after injection): 1 nmol | Number of viable bacteria in mice infected with antibiotic resistant S. aureus ([10]; within 24 h after intravenous injection, thigh muscle): reduced in a dose-dependent fashion | Intracellular non-specific esterase activity of E. coli (E. coli [11]): not | CFU of bacteria, L. monocytogenes (L. monocytogenes [12]): 2.4 ± 0.9 × 10^4*^,** CFU | CFU of bacteria, L. monocytogenes (L. monocytogenes [12]; listed as hLF^3N): 4.8 ± 2.4 × 10^5 CFU | Killing of L. monocytogenes by the protein (in words) (L. monocytogenes [12]; dose-dependent, FIGS. 1A–1E): killed
